Common to all, as to assay: AVEXIS screen signal:noise (double-corrected)
One assay concerns the target T1, ADP385.
T1 chain: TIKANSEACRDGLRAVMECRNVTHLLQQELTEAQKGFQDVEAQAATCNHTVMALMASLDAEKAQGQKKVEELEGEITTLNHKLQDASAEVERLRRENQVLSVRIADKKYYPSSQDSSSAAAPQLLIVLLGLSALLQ

In the next assay the target is T2, ADP318.
T2 chain: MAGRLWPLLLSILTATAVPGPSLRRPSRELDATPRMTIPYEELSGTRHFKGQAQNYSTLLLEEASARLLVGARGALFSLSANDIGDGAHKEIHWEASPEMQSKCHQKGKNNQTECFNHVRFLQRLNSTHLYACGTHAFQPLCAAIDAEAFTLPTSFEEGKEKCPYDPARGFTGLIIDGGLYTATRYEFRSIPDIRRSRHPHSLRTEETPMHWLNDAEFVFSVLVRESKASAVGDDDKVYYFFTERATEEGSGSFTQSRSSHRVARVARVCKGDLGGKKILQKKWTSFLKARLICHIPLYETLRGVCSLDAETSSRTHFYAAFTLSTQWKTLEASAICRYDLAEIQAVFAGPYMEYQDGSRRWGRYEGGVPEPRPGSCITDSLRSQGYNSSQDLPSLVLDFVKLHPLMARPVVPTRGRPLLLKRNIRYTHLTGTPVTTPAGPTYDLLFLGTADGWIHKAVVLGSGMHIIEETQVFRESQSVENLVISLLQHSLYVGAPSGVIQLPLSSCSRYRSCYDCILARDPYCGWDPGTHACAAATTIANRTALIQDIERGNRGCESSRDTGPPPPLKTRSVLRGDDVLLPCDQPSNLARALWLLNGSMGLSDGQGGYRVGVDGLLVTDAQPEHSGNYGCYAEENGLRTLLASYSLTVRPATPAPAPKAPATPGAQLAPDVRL

The target in another assay is T3, ADP155.
T3 chain: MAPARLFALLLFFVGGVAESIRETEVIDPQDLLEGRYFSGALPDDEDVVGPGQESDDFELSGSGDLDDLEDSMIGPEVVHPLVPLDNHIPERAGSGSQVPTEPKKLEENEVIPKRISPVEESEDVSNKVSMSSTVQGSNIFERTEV

The target in a further assay is T4, ADP154.
T4 chain: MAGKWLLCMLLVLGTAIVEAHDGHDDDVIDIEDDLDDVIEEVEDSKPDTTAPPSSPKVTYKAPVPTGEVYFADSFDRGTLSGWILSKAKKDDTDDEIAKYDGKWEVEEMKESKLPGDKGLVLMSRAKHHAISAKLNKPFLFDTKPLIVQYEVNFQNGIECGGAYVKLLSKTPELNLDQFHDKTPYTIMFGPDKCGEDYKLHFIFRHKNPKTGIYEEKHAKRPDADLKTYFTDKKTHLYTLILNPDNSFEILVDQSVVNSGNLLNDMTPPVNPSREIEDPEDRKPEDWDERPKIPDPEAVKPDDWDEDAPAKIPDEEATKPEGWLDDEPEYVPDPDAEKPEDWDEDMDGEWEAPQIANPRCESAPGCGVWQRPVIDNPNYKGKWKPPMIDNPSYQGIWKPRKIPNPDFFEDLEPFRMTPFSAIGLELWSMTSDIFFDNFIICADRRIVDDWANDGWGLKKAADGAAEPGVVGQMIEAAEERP

The target in another assay is T5, ADP378.
T5 chain: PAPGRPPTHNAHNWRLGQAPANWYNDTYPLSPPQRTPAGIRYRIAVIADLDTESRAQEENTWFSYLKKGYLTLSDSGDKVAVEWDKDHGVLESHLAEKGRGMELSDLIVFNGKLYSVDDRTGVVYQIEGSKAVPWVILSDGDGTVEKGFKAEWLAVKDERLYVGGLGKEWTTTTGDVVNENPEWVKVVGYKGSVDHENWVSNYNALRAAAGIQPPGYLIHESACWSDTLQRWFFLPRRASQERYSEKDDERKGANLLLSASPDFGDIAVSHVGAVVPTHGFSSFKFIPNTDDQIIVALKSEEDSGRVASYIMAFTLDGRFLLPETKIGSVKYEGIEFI

Another assay has as its target T6, ADP262.
T6 chain: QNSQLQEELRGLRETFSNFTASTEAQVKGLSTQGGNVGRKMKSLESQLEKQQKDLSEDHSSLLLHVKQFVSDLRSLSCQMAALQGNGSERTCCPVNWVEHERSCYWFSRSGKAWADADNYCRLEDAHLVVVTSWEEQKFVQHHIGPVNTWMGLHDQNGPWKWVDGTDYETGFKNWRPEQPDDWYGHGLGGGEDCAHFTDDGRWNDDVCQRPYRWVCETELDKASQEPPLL

B1: ADP195 (protein)
chain: FRKYDKNKNKILISHSINNNNNAIKNNNNNNNAIKNNNNNNNAIKNNNNNNNAFSATSFSSEKNKNKAYTNVLKKKNIYIREESNKATNIKEDEEKNKKINNNDKETNYAFLSLKFFPFILTSLLHTGINQIPRNTEIELYEFEKSPMIRHMLVAEERKN
modifications: bait human Fc-tagged dimer; N-glycosylation sequons mutated in Plasmodium baits
On to B1, for which the binding score with ADP385 was 18.7; in the assay with ADP318, 5.72.

B2: ADP243 (protein)
chain: SDSYSTGGNEKEKIFMDNYKYMWTYIYFLQKRIMMKKLSHPLYMSKKFILLHNPKDIEEFRIPLKDTLWSYVDRNSIKGFININLDSIFDIDLKEYYVHDKENMANSEKSEDLECIDAYVQKTNEIYYNMADTKDEAYIFICKKCKHIYKDIKECREKSMQLMIQNMKITVPQIRLKYDKKNRNNEEIIINIPVTYVLSNLLSSLKKTVTYNTDDLNNACNVLIKMLHLDLLKILYNLQYHNGIFNGITEKYLIEFRNIFVKRQKTNTEDNNDMIWEECFVLKKSIDKIMNINSFLLTKSRNRYMDYLQNRRKRYRDILFMITYNVADMNLNTYIKSIYNYIHISTKIIEDIQYIYNQEVYATFFVRTELIETYLLRNPKQLKNTCSIYIMITISWFFNQINIGMYNKNKNVYDLFKEKFSKSNVKQIINSIYTNNVENKANILQICNDAMTNTIELIKKVIKNYYKQNNVLSNYNINFAGLIKFIDIQILRMKFIQSTLEKQPLIEYDTLNDDHLNNDAIIKRENMVCMMKYISNKINTYISLLKKSDLQTIMLQNYDKYNIYLDTYFTHNENVFFCSSPGQYLIIKIFFYSFFNILNIYG
modifications: bait human Fc-tagged dimer; N-glycosylation sequons mutated in Plasmodium baits
Consider B2, for which the binding score amounted to 8.67 in the assay with ADP155 and 8.73 with ADP154.

B3: ADP244 (protein)
chain: GIITGKLNYFGTFSLKIFAKTYFQYKINTYSNLYSYCGISQEYNKAKSTCESCPIGTFWNSEKLLCENCQKYIENTATLKNGAKLKTDCLCSPGYEYSDKSSKCEKCKPGYYKKSVGNFICIKGCPINEKSITYGAKSYAEMDCKCIEGYYRKEDKCVLCLSNYYCPGNELIKPCDKNKISKEGVIHKNDCICKENYIKDNKNNNCVYCASIAKILGKPIYCSLCDPIYFHEDIYKNIFLLPNNIHNYGLINNIYNYDEDLSLQGNIMKYAYFHKTTNIERNFAHYINIKNIYHTFNNNINNYDYLTNSKFAIEIDIPEPKKCIFCDSGYYIKKKKCISCTTKYCEGFNHNPKACPKNSVVNKMKASSIFDCSCKRGYGILNERRNAYSNTITCQICPQNFFKHIISDDSCFPCPLYTYTLNQGATSILQCLPKKGYFIYMFKSINIDYLRYKFDINTENRIYNYFENNNKIFDEDVYNFFLNKQYSKFFYNTENK
modifications: bait human Fc-tagged dimer; N-glycosylation sequons mutated in Plasmodium baits
On to B3, for which the binding score in the assay with ADP378 came to 6.32.

B4: ADP239 (protein)
chain: NNLDKNKNFIQYKNFKKNKAYKYKNNNNNIIIINSHSHSNSHSNSHSHSNSHSNSHSHSNSHSNSHSHSNSHSHSHSNSHSNSHSHSSTQNSLYHDTNQANFLKPTSFFLYKHHVYFNQKYKKDPNILNKLKVPRNHIFHINKCDLNYYIQNYEFFFFFPDYYEYSHLYIRLDKLFYFQRCGCDTNIKKTKKRNQNIFNNMLGMKEKDTYLQNEICDIYWNYLKDDNTYDKYNFAIINYIKNIIKKMYRYLYIYKVFVLKQFYRIVYYNQGIRNFYYMLFSYIYNKGSIIYNYNQMYFKKHRKKQTIIRSKRFMNEHIKEEDVDYNIVKDEKDKSIQSTEQKSYLKNNAIQYFQCFLDKAMENKNAENELDKWIDPQSKSCYCSEEFAEPCTSEDLVDINNINQIMDNAFCEYNNNDNNNNDNNKNNNNNINNIINIYDNNILGDNVKNIFVALSEYKILQCNDKEKKDIIKKEQLYNYCKYGLNIWDNKNMYDYLNCLNVISYNKKDDKTCIRKCENIKKLCNIVAQFYSFEVCKKYYENNKHTEDIYINNFKYFSDHCKYIDPTNRGLVLCKHKNVECVYSQWSEWSTCSKTCIENEYDTNSARTRTRILLNKFEVPSKSCSFIINEKNNLMDINFCSYLPFCNKNNDMKKKDDERIMPFVISIKEIEKLNTLKYLNNDDNDLLNENYKNYESVHKNNECKVTDMYQYEYAISYNEKNKACSCPNNQAPCYFKDIYNSESWKKSLHILCKHNPHINVITADYIIIDCNMAISIKKKEIAVNTYLAMTFNCHSDIFQYIFCAKNIQSIRTN
modifications: bait human Fc-tagged dimer; N-glycosylation sequons mutated in Plasmodium baits
As for B4, the binding score in the assay with ADP262 is 6.08.

(Values after publication PMC11098746 (2024).)
